Experiment: soluble fraction after stress (log2 fold change); higher = more stays soluble; pooled small domains, quantitative proteomics
Conditions: stress: 50 degC
Summary of the method: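 The stress applied to every library was 50°C. These custom libraries of small protein domains were pooled and measured at high throughput with quantitative proteomics as the read-out. Aggregation propensity is expressed as the base-two logarithm of the fold change in how much of each protein remains soluble. The higher the value, the more of that protein stays in solution.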

Sequence	soluble fraction (log2)
HMPYSAAVTFLDDAKQPMVNYNYRLIAENGIEVSGITDEFGKTQPIQTDQREKVDLYIADLPN	0.495
HMLGSQQAYTDALRLTGLPVDIEVIESDRLPFLIPMRYSLDQHLIEVNVRYPDTRAIRVQQMVEELFHA	-0.624
HMNNSVAYSTFLNDIRTNTLKDVDMTSNSETINVTKKDGTKYQTVMPMYDRDLLADLSKTDATVTGQP	0.28
HMALKSGVIAHAVDDAVMRGLNVFTVSDDGSIVSMKDNDIVLGKDGKSPYSVSEWLEELKPNVPHWFG	-0.0243
HMPGIDDAAVEHAERVLAQHIGPMARLLVRRTVPRAANLFDLHRRLGALIPESEPRTAFLSAVVT	0.0708
HMFNIIARQEIDEILYEYKIENSEDYKNRDPEELAEIYENIKTVQENHDLSDDDVEELLKSIFSDY	-1.02
HMAPEEIPLDRVVRLVEQGRVESIVVTGERLEVTLQNGTVYGSTKENGVGFMETLDRYQVPLEQRDFSYEV	-0.0708
HMPTYEEAKTYLKAAFEHIVAAGRDVGELVEFAFAKSGDAVAPYLRRFLSDVHEGRITIQGLTESAKLAV	0.206
HMGHKTLTVELQEKIENLPQTLDKYNLTLGNNKMSVDYTYSVKEKQTGITNLLQDLKEHKFDIVYLVGQDN	0.251
HMNEFSYLSELGSEKGDLIKGLQLVQSREGYVSDDAIRAISKHFSIAEAEVEGVLTFYAQFK	-0.572
HMSGFPTDAQIVREIRNILPTLENPTPRMVRKALENTFEVDMGESKTKKYINNIIITEYEKWSSVQSIRE	-0.534
HMQNGNYVVQRQDSLWSIAARISGQTHQPIGEVMNHIKALNEHAFVGGNVNRLRTGTNLNLG	-0.156
HMNRPYETLFTGLTTDEASAIVGKLEEYGAADYKIEGDTIKVPAAQEPDLKAKLLLDGYPKS	0.105
HMLDIVVGSTGYALGEITDHSGTVRVNGDTWTARLVDAAGPVEDGDRVEVYAVEGTTLLVYPS	-0.396
HMDAKIEYTMSDLIENRLINSDDASMRREKLSEILKIGYGNGKKTLHKLNSFGITREEFEEAMKEVNSH	0.0697
HMNFTVTDKNAVLYSNDNTKVYESPDINSKLVTTIAKDLPVNVTGITSNGWFRISLEGTYYVPGNGLEQR	0.141
HMPVTKSARQSRIGELIAREPVRSQSELAARLADDGIVVSQGTLSKDLLELGAVRVRTSSGELAYALL	-0.18
HMKILALETSAKAVSAAVSENGRILASGYQDTGLTHSRTLMPIVEHILKNTDLKLSDMDAIAVAVGPG	0.211
HMNDEFYAVVRESYAGYALVKPLDEDVGYDILSVSVKNLKVGDIIRLKVKNIKEIYPPEAEVLEVEVLQ	0.00135
HMSSAMDMISRDVRNADSISISTTTYSKKIDLYNFDRNGDIEELHSYSAKNDLGILYNDEPI	-0.276
HMSFVEVTVSELKNYVNSHARIKLKSGKEFKGFILDANEEGVIIKVQLRGGTAESTISYNRIDRAAVF	-1.69
HMSVVKPIYIGMMTSEVEAIMGKPFEVITNNNSKNNQLWIYKYQDKRSVMLTFTNYKLIKIE	-0.819
HMNGYGALVRLGRSRGWVTVEEINDHLPESAVRTAENVQEITEALGRLSIKVFETRPDEDDLLIT	-0.0632
HMRSISVEMDGKEYLIPTVSENGKVLSDDDAVKQFKKTGKHLDVFDSPEDATAYARQLHEDQESFYA	0.142
HMRSPVDALSNRELQVLQMVGRGLSSRQVAEALHLSVKTVEAHRQRIKGKLGLRTGAQLVQFAANWVTG	-1.27
HMIEEIETQFLFDFGLIGHPNSAKIREKLSEALGIGYVNGKQLQKRLMMFGITKQQVVDVLTD	-4.94

Sequence	soluble fraction (log2)
HMGTKVGAPLPGTITEVKVKVGDTVKAGDAVIILEAMKMQNNIEAEVSGTVSSVLVKEGDTVMEGDALITI	0.144
HMIQAGDLVFIWNPKKGDNFLIKVTPGMSQGTHFGQIKHTELMEREYGEGIVTPKGEVYYLLRPTLAGYTR	-0.973
HMQENVIIYPNPTKSVIYLSEKVEFILYNILGEIIFIGDNNKIDLNSFDNGVYIFESGNVRTQIIK	0.0489
HMNVDIVEITKNSSPNQISKVIDIGAIQIVEDLMSFGIMKAIDTPLEDSEIEQLLEKYNLIVDLIE	-2.33
HMSSPPNPQLAKRYISYSVDDIARLFGIHRHTVREWIKRGLPVIDQQRPLLVQGADLAEFLRKRRA	-0.719
HMFDGRSDAEKTLDLIKTAIDNILKGGAIQEYKIGTRTAKKYDMAELQVLKGEYAAMVAREKQAETMA	-0.132
HMDETFTITFDPNGGTLNGSKTKTVSLGDIVYGKLPTASKTGYSFIGWFTEKEGGEQISSATKIIASDLTL	0.0253
HMRFSYLNIETRKDISSLINKSEITHSSYNNNEYLYKIKSKKTDDFKDLISLIDEKDLISYSIDS	-0.838
HMLAIELDDKPGSLLRALEIFAKRNLNIEYMYAFTEKRGDKAVMIFKFSDIETAKKSLLEEGFN	-1.64
HMNITFAENIKQFRKAKSMSMEELGKRLGKAKSSISAWENGKRTPKINELKSISEALGVTISQLLGF	-1.13
HMEDIEEVIVEIDTVLRTHFDRGRTEVLFAEIETAGGRPFMTYLALLFMAHRGSVRLQQDDLFGDLWVKDP	-0.0374
HMNIETHIVPKLLAPIRLQEYGVGIFNNIPTKSALKKALKKQLITVDKTVATTATFIKGGETIELAYQ	-1.47
HMADVIKLVNTSVLNVRSGAGINYSKIGSLTQGTKVNIISESNGWSKINYNGKIGYISSQYVSEVS	-0.206
HMSEPQEISYSDFIEQVNRNEIRQVEFDGQHEYLTVIRKDTSRFKVIIPAPDPRLLDDLMEHDVEIVGKE	0.0895
HMAGSGDLNAKYLASIPAPMKAKILKAVANHYGVSISEFEEEVTDKDAEALYEYIPTRSMAVQVLRDMKG	-0.373
HMDLIISDIRMPEMRGDDFLEWIKANELFKHIPVIMLSSEDSTTERIRLLEIGAEDYIVKPFNPMELKIR	-0.505
HMNIMAQDWISSPMGPISFKSNQHGLVKIGWGEVPRENTEQPNLEFTRKWLVDYFEGKASPLPYF	-0.329
HMISKRFQIDEENAHKRIDIFLSHEFDSISRGIVQELIVKGEVLVNDKVTKRNYKLKTGDLVDITINL	-2.59
HMARSKSRQSSVLESVPGLGPSRRRNLLRHFGGLQGVVKAGVEDLMAVRGISRTLAETVYDHLHPGS	-0.289
HMVPDVVGKDYALAQAELEGANLVVAKGSSRYDDTLPAGVVLATDPKVGTVVKPGAKVTVILSK	0.251
HMQNPDHLLALAAAAQAAIELGRPDEAEAYYRHLVEVYGVEMASQKPEYLDHSGITNDLRNVAEGFLVG	-0.746
HMLPSWPGVSEFEVARLLRRGRARGSLTLDEVIDVVRDAELTSELIAGIRSSLRAEGIDFEET	-0.475
HMDNMFVEERQALIYEELQSNGRVRVKDLSKKFNVSEDLIRKDLNVLEKEGKLRKIYGGAVLAK	0.568
HMTGKASEIAALLEQRIAAGDYPAGSKLPSERELAASFHVSRNTIRDAIALLAARKIVSTKWGAGTVVLG	-0.139
HMSSESIIIKKLIEEFIHNENKYSPLSDEKLSYLLKNKGFSVARRTVAKYRDELGILSTRERKIKI	-0.745
HMSASSTAPGSVTLRGAILTAWTAAGGERSKMGLPVGYEVRQADGTVTQTFEKGRISVSPTGTATI	0.0647

Sequence	soluble fraction (log2)
HMAVPMTPGELVGSRVRVLWWKDGRGEVVALARGHQATLPARSEEPLRTGADAVVLEADEGTLVVTS	-0.0203
HMDLDEELDFLSDADESATKLDLARAYIDMGDKDGARDILAEVLEEGRSEQKREAQALLDSI	0.406
HMKDHLRFEILSFAGDLRNGVVKTRQEFETIFAFYDKYEEIITALKVHNGYVDSEFDFIKEKFKELKSK	-1.92
HMVKSDLVGHRFILVEDVTPKLTPKYHYSGINWKLITTDNLVAGTRVEVIQVDVGKFHIKAIK	-1.65
HMAGTAFPVRIMLKGIDRIGLLNEITGYISVAMGVNMRKLNLSTEDGIFEGYIDMLVHDRTVLESMIDNL	-0.381
HMDLYEILGVRRGAGGGEIRRAYRRLARRYHPDVNPGDREAQARYALITRAFETLNDPERRRAYDAGVP	-0.34
HMSPLPDRESLGAIEKLISLLGSSEWTVREKATRELGAFGYLARPVLQRELATSGDPEVSRRLERILSNL	-0.332
HMETVPMIDLRGMTQEQAEKAIVGLGLTVGTVDHSSSDMPAGQVWFQSVEPKDEVAPGTKVNIIISTGS	-0.000277
HMKEATTSPLDGIPGIGSKRKKALLSHFGSARSVARADIPDLMRVDGISRQVAETIYGWFHN	-0.179
HMSQEILSNQSIKDMIELGFEEQTIIDKIQTSTSDFDTTIEELKALKQLGASPTILSAMIKSIKK	0.285
HMTTLLNHLKGTRLEAGLSQQALARLAGISRQAYSALESGSSNPSTEVALRLARALKTSVDHLFSLPE	-0.989
HMKLSDDIIVDTIKEIIEENKNMIEQRKMGAMGPLMGKAMAKFKGKADGQTVSNVIKDEILNIIN	0.154
HMVFSKEELLFNSDSLLSLYPNDNKLLETILSEKIDHAVKNNDMSMYKEILVIDPKNPLANYHLLM	0.0579
HMTGEERRMNTADLYRRRGMELFKRKIYVDAIDSLKVSLEYEDNATTRYYLDLATKRYQDLKIS	-1.12
HMQNYTTIIGVIELRLNDISYDNVRKRYHIGRSGITLIMDRYRDSGLSLEDLKQMTPEKVVDLFYPR	-2.3
HMSPPPRPSHPEAAGLRHLAFEVDNIDDAVRHLDRLGVPHEPVRTDEYTGRRFLFFTDPDRLPLELYEK	-0.0818
HMSDTFTITTESGRIDKIITAHETTHTRSQVQKWLQDGLVTVNGNPVKANFKVTAGDVVTVTIPEVK	0.104
HMATINGIEKYLSSGLIPGIGPHTAKKLVEKFGLDTLDIMQYNPDRLTEVEGIGDKKAAKISEAFQEQK	0.0735
HMFPSLSPEEQAVVDVLQRNNDLQINMLSVQSGLTISRLTALLFQLEMKGVIKPLAGGMYHLL	0.0206
HMDKESQTMFRLLTGVSGVGPKVGLAILSVLSPDRVVLAISAGDHKAFTAASGVGPKLGQRIVLELKDKVG	-3.12
HMWMQKILGNYIAARRKELGMTQANLAEKIHVTDKAVSRWERGVGLPDIENLEALAKALEVSLVSLMQGKT	-1.59
HMGRYVIQIASFSSKNNAIEAADKLGGFVVQSGRFYRVRTGPFATRGEADAALASARRVGYRDAFIDTS	-0.531
HMDEARLAVASNLIRLRTDAGMTQAELGEKLNYSDKTISKWERAEAIPDAFVLKQIGELFHVSVDFLLRTH	-0.37
HMTDKLEEEAKKKAMEDALADEMNISKTIVHDGIRELARIGFLDVISRKGIYVADYTFTGNLETLLAVIRY	-0.926

— the domain aggregation screens of Martell et al. (2025)
